Results taken from US20160145322A1 (CRUCELL HOLLAND B V, published 2016).

Experiments:
[1] = target: G protein of RSV B/18537 (ATCC Cat. No. VR-1580), on virus (Respiratory syncytial virus B/18537); assay: cell-based or functional assay
[2] = target: T1, Sym-1705 (RSV-G type A central region peptide 145-201) (Respiratory syncytial virus type A, not fully specified; N-terminal biotin); assay: ELISA, biotinylated peptide on avidin plate
T1 construct: Synthetic peptide
T1 peptide: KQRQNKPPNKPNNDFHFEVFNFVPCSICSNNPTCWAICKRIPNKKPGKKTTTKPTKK

[3] = target: T2, Sym-1706 (RSV G central conserved domain (CCD) peptide, type A 145-184) (Respiratory syncytial virus type A, N-terminal biotin); assay: ELISA, biotinylated peptide on avidin plate
T2 construct: Synthetic peptide, C-terminally truncated against Sym-1705
T2 peptide: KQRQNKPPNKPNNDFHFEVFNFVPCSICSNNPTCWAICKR

[4] = target: T3, Sym-1789 (RSV-G type B central region peptide 145-184) (Respiratory syncytial virus type B, N-terminal biotin); assay: ELISA, biotinylated peptide on avidin plate
T3 construct: Synthetic peptide, C-terminally truncated against Sym-1788
T3 peptide: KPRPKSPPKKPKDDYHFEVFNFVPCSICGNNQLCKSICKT

[5] = target: T4, Recombinant RSV attachment protein (G protein) corresponding to RSV B/B1 (Respiratory syncytial virus B/B1, UniProt O36633 65-299); assay: ELISA, coated recombinant protein
T4 construct: also called RSV Gb; Gb
T4 sequence: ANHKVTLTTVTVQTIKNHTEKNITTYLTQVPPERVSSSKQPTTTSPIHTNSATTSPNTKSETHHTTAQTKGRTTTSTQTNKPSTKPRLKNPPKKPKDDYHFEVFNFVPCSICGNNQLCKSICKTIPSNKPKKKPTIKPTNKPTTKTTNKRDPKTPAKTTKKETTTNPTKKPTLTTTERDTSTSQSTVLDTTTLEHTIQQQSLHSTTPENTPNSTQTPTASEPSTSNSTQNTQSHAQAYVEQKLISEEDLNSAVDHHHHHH

[6] = target: T5, Sym-1788 (RSV-G type B central region peptide 145-201) (Respiratory syncytial virus type B, N-terminal biotin); assay: ELISA, biotinylated peptide on avidin plate
T5 construct: Synthetic peptide
T5 peptide: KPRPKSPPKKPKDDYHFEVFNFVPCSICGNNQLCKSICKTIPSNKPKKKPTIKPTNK

B1: CB047.1 (antibody, V domains shown)
VH: EVQLVESGGGLVQPGGSLRLSCAASGFSFSNYAMSWVRQAPGKGLEWVSDISGSGNSTNFADSVKGRFTISRDNSKNTLYLQMSSLRAEDTAVYYCAKFRVPTYCVNGICYQGLPGFDIWGQGTMVTVSS
VL: DIQMTQSPSSLSASVGDRVTITCQASQDISDYLNWYQQKPGKAPKLLIYDASNLETGVPSRFSASGSGTDFTFTISSLQPEDIATYYCQHYHNLPPLFGGGTKVEIK
notes: Tested as human IgG from the pCP9-kappa vector
- Neutralization IC50 (ng/mL), plaque reduction assay, RSV B/18537 [1]: 4.7 ng/mL
- binding result [2]: binds
- binding result [3]: binds
- binding result [4]: binds

B2: CB047.2 (antibody, V domains shown)
VH: EVQLVESGGGLVQPGGSLRLSCAASGFNFSNYAMSWVRQAPGKGLEWVSDISSSGKTTNSADSVKGRFTISRDNSKNTLFLQMSSLRADDTAVYYCAKFRVPTYCVNGICYQGLPGFDIWGQGTMVTVSS
VL: DIQMTQSPSSLSASVGDRVTITCQASQDISDYLNWYQQKPGKAPKLLIYDASNLETGVPSRFSASGSGTDFTFTISSLQPEDFATYYCQHYHNLPPLFGGGTKVEIK
notes: as for B1
- Neutralization IC50 (ng/mL), plaque reduction assay, RSV B/18537 [1]: 8.9 ng/mL
- binding result [2]: binds
- binding result [3]: binds
- binding result [4]: binds

B3: CB065.1 (antibody, V domains shown)
VH: QVQLVESGGGVVQPGRSLRLSCAASGFTFSNYGMHWVRQAPGKGLEWVTIISYDESTTLYADSVKGRFTISRDNSKNTVYLQMNSLRPEDTAVYYCARDHFDPSGYFWYFDLWGRGTLVTVSS
VL: DIVMTQSPLSLSVTPGQPASISCKSSQSLLQRDGKTYLYWYLQKPGQSPQLLIYEVSSRFSGVPDRFSGSGSGTDFTLKISRVEAEDVGVYYCMQGIRLPRTFGQGTKVEIK
notes: as for B1
- Neutralization IC50 (ng/mL), plaque reduction assay, RSV B/18537 [1]: 5.1 ng/mL
- binding result [5]: binds
- binding result [2]: binds
- binding result [3]: binds
- binding result [6]: binds
- binding result [4]: binds

B4: CB071.1L (antibody, V domains shown)
VH: QVQLVQSGAEVKKPGSSVRVSCKASGGTFSRYVITWVRQAPGQGLEWMGGSIPIIDTSTYAQKFQDRVTITADKSTSTVYLELSSLRPEDTAIYYCAKVFFFSNSSGPPTEGPAFDVWGQGTMVTVSS
VL: SYELTQPPSVSVSPGQTASITCSGHELGDKYVSWYQQKPGQSPVLLIYQDTNRPAGIPERFSGSNSGSTAFLTISATQAMDEADYYCQAWDNSHVVFGGGTKLTVL
notes: Tested as human IgG from the pCP9-lambda vector
- Neutralization IC50 (ng/mL), plaque reduction assay, RSV B/18537 [1]: 5.4 ng/mL
- binding result [2]: binds
- binding result [3]: binds
- binding result [4]: binds

B5: CB072.1L (antibody, V domains shown)
VH: QLQLQESGPGLVKPSETLSLTCTVSGGSISSNIHYWAWIRQTPGKGLEWIGYMFYGGVAFYNPSLKSRVAISVDTSKNQFSLRLTSASAADTAVYYCARVLVASTNWFDPWGQGTLVTVSS
VL: SYVLTQPPSVSVAPGGTARITCGGDNIGTKGVHWYQQKPGQAPVLVMYYNSDRPTGVPERFSGSNSGNTATLTISRLEAGDEADYYCHVWDSSGSDHVEVFGGGTKLTVL
notes: Tested as human IgG from the pCP9-lambda vector; also called CB072.IL
- Neutralization IC50 (ng/mL), plaque reduction assay, RSV B/18537 [1]: 2.7 ng/mL
- binding result [2]: binds
- binding result [3]: binds
- binding result [4]: binds

B6: CB073.1L (antibody, V domains shown)
VH: QVQLVESGGGVVQPGRSLRLSCAASGFTFYNYAVHWVRQAPGKGLEWVAVISHDGVNKDYADSVKGRITLSRDNSKNTVYLQLNSLRPEDTAVYYCARDRSYYFGGSVFHLYFDYWGQGTLVTVSS
VL: QSVLTQPPSVSGAPGQRVIISCTGSSSNIGAGHDVHWYQQLPGTAPRLLIYANTNRPSGVPDRFSASKSGNSASLVITGLQAEDEADYFCQSHDSSLSGVLFGGGTKLTVL
notes: as for B4
- Neutralization IC50 (ng/mL), plaque reduction assay, RSV B/18537 [1]: 2.9 ng/mL
- binding result [2]: binds
- binding result [3]: binds
- binding result [4]: binds

B7: CB076.2L (antibody, V domains shown)
VH: QVQLVQSGAEVKKPGSSVKVSCKTSGDTFSNYVVSWVRQAPGQGLEWMGGIIPMFGTTNYAQRFQGRVTISADESTSTAYMEMSSLKSEDTAVYYCARDRYYEVRAGGKVLNTYYYMDVWGKGTTVTVSS
VL: SSELTQDPAVSVALGHTVRITCQGDSLRSYYTNWYQQKPGQAPVLVIFGEDNRPSGIPDRFSGSSSGDTASLTITGTQAEDEADYYCNSRDSSGNLWVFGGGTKLTVL
notes: as for B4
- Neutralization IC50 (ng/mL), plaque reduction assay, RSV B/18537 [1]: 5.6 ng/mL
- binding result [2]: binds
- binding result [3]: binds
- binding result [4]: binds

B8: CB079.1 (antibody, V domains shown)
VH: EVQLVESGGDLVQPGGSLRLSCSASGFVFTSYSFHWVRQAPGKGLEYVSSVSADGGSTYYADSVRGRFLISRDNSKNTLSLQMSSLRPDDTALYYCVPQPSLLWFGDLRSWGQGTLVTVSS
VL: DIVMTQSPLSLPVTPGEPASISCRSSQSLLHSNGYNYLDWYLQKPGQSPQLLIYLSSNRASGVPDRFSGSGSGTDFTLKISRVEAEDIGIYYCMQSLQTLTFGQGTRLEIK
notes: as for B1
- Neutralization IC50 (ng/mL), plaque reduction assay, RSV B/18537 [1]: 4.4 ng/mL
- binding result [5]: binds
- binding result [2]: binds
- binding result [3]: binds
- binding result [6]: binds
- binding result [4]: binds

B9: CB017.3L (antibody, V domains shown)
VH: QVQLVESGGGVVQPGGSLRLSCEASGFMFSVYAIHWVRQAPGKGLEWVAVIWHDGSNKYYADSVKGRFTISRDNSKDTMYLQMKTLRVDDTAVYYCARDPIVGSKTDGMDVWGQGTTVTVSS
VL: SYELTQPPSVSVSPGQTARITCSGDALADQYAYWYQQKPGQAPVMVIFKDNERPSGIPERFSGSSSGTTVTLTVSGVQSEDEADYYCQSVDSSGTYWMFGGGTKLTVL
notes: Tested as human IgG expressed in 293-F cells from the pCP9-lambda vector
- Neutralization IC50 (ng/mL), plaque reduction assay, RSV B/18537 [1]: 2 ng/mL
- binding result [2]: binds
- binding result [3]: binds

B10: CB028.1 (antibody, V domains shown)
VH: QVQLVQSGAEVKKPGASVQVSCKTSGYTFSSYGISWVRQAPGQGPEWMGWISTHIGTTNYAQKLQGRVTMTTDTSTTTAYMELRSLRSDDTAVYYCARDLAKWYCSGDTCFCSGGRCYSDHWGQGTLVTVSS
VL: DIQMTQSPSSLSASVGDRVTITCRASQSINDCLNWYQQKPGQAPKLLISAASNLQSGVPSRFSGSGSETDFTLTISSLQPEDFAAYYCQQSFSTPLTFGGGTKVEIK
notes: as for B1
- Neutralization IC50 (ng/mL), plaque reduction assay, RSV B/18537 [1]: 16.3 ng/mL
- binding result [5]: binds
- binding result [2]: binds
- binding result [3]: binds
- binding result [6]: binds
- binding result [4]: binds
